According to publication doi:10.1101/2025.07.08.663435 (bioRxiv, 2025):

T1: SMCHD1 ATPase domain (UniProt A6NHR9 25-581)
T1 sequence: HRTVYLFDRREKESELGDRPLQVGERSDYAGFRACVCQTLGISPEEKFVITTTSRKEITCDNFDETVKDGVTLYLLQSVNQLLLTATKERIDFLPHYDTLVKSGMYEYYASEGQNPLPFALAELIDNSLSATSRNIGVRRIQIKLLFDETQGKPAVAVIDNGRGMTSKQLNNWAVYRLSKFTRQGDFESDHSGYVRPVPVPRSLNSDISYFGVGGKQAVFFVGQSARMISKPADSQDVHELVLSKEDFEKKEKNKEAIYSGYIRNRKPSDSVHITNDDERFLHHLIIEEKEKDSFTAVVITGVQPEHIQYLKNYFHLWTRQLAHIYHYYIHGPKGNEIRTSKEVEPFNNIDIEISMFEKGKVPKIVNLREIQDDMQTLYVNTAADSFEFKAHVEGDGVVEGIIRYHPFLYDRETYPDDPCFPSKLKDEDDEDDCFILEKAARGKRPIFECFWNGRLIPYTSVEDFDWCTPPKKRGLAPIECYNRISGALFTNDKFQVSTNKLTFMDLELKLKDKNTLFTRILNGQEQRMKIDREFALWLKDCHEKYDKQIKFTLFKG


Tests used:
atomic force microscopy = target: the molecule itself; assay: atomic force microscopy
SMCHD1 ATPase domain = target: T1, SMCHD1 ATPase domain; assay: EMSA

| Binder | binding result (atomic force microscopy) | binding result (SMCHD1 ATPase domain) |
| --- | --- | --- |
| SMCHD1^△CC, truncated SMCHD1 without both coiled-coil domains, purified (natural protein, human, UniProt A6NHR9 1-2005, looked up) MAAADGGGPGGASVGTEEDGGGVGHRTVYLFDRREKESELGDRPLQVGERSDYAGFRACVCQTLGISPEEKFVITTTSRKEITCDNFDETVKDGVTLYLLQSVNQLLLTATKERIDFLPHYDTLVKSGMYEYYASEGQNPLPFALAELIDNSLSATSRNIGVRRIQIKLLFDETQGKPAVAVIDNGRGMTSKQLNNWAVYRLSKFTRQGDFESDHSGYVRPVPVPRSLNSDISYFGVGGKQAVFFVGQSARMISKPADSQDVHELVLSKEDFEKKEKNKEAIYSGYIRNRKPSDSVHITNDDERFLHHLIIEEKEKDSFTAVVITGVQPEHIQYLKNYFHLWTRQLAHIYHYYIHGPKGNEIRTSKEVEPFNNIDIEISMFEKGKVPKIVNLREIQDDMQTLYVNTAADSFEFKAHVEGDGVVEGIIRYHPFLYDRETYPDDPCFPSKLKDEDDEDDCFILEKAARGKRPIFECFWNGRLIPYTSVEDFDWCTPPKKRGLAPIECYNRISGALFTNDKFQVSTNKLTFMDLELKLKDKNTLFTRILNGQEQRMKIDREFALWLKDCHEKYDKQIKFTLFKGVITRPDLPSKKQGPWATYAAIEWDGKIYKAGQLVKTIKTLPLFYGSIVRFFLYGDHDGEVYATGGEVQIAMEPQALYDEVRTVPIAKLDRTVAEKAVKKYVEDEMARLPDRLSVTWPEGDELLPNEVRPAGTPIGALRIEILNKKGEAMQKLPGTSHGGSKKLLVELKVILHSSSGNKEIISHISQHGGKWPYWFKKMENIQKLGNYTLKLQVVLNESNADTYAGRPLPSKAIKFSVKEGKPEKFSFGLLDLPFRVGVPFNIPLEFQDEFGHTSQLVTDIQPVLEASGLSLHYEEITKGPNCVIRGVTAKGPVNSCQGKNYNLKVTLPGLKEDSQILKIRLLPGHPRRLKVKPDSEILVIENGTAFPFQVEVLDESDNITAQPKLIVHCKFSGAPNLPVYVVDCSSSGTSILTGSAIQVQNIKKDQTLKARIEIPSCKDVAPVEKTIKLLPSSHVARLQIFSVEGQKAIQIKHQDEVNWIAGDIMHNLIFQMYDEGEREINITSALAEKIKVNWTPEINKEHLLQGLLPDVQVPTSVKDMRYCQVSFQDDHVSLESAFTVRPLPDEPKHLKCEMKGGKTVQMGQELQGEVVIIITDQYGNQIQAFSPSSLSSLSIAGVGLDSSNLKTTFQENTQSISVRGIKFIPGPPGNKDLCFTWREFSDFIRVQLISGPPAKLLLIDWPELKESIPVINGRDLQNPIIVQLCDQWDNPAPVQHVKISLTKASNLKLMPSNQQHKTDEKGRANLGVFSVFAPRGEHTLQVKAIYNKSIIEGPIIKLMILPDPEKPVRLNVKYDKDASFLAGGLFTDFMISVISEDDSIIKNINPARISMKMWKLSTSGNRPPANAETFSCNKIKDNDKEDGCFYFRDKVIPNKVGTYCIQFGFMMDKTNILNSEQVIVEVLPNQPVKLVPKIKPPTPAVSNVRSVASRTLVRDLHLSITDDYDNHTGIDLVGTIIATIKGSNEEDTDTPLFIGKVRTLEFPFVNGSAEIMSLVLAESSPGRDSTEYFIVFEPRLPLLSRTLEPYILPFMFYNDVQQVPHIEALLKRKLSEQEELKKKPRRSCTLPNYTKGSGDVLGKIAHLAQIEDDRAAMVISWHLASDMDCVVTLTTDAARRIYDETQGRQQVLPLDSIYKKTLPDWKRSLPHFRNGKLYFKPIGDPVFARDLLTFPDNVEHCETVFGMLLGDTIILDNLDAANHYRKEVVKITHCPTLLTRDGDRIRSNGKFGGLQNKAPPMDKLRGMVFGAPVPKQCEEKLGMTPIRKCNDSLRHSPKVETTDCPVPPKRMRREATRQNRIITKTDV | binds |  |
| FAM 37 bp duplex (dsDNA) DNA 1: CCTAGGCTACACCTACTCTTTGTAAGAATTAAGCTTC DNA 2: GAAGCTTAATTCTTACAAAGAGTAGGTGTAGCCTAGG |  | binds |
